Laboratory results as given in US20220332804A1 (CSL INNOVATION, published 2022).
Changes are numbered by the printed parent chain.

Key:
Test in all cases: SPR, antibody captured, C2 as analyte;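 also: biacore at 37 °C, anti-C2 mAbs held by immobilised goat anti-human IgG, C2 alanine or serine mutants injected, double-referenced sensorgrams fitted to a 1:1 kinetic or steady-state model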
[1] = target: T1, human C2 V465A (human, UniProt P06681 21-752)
T1 sequence: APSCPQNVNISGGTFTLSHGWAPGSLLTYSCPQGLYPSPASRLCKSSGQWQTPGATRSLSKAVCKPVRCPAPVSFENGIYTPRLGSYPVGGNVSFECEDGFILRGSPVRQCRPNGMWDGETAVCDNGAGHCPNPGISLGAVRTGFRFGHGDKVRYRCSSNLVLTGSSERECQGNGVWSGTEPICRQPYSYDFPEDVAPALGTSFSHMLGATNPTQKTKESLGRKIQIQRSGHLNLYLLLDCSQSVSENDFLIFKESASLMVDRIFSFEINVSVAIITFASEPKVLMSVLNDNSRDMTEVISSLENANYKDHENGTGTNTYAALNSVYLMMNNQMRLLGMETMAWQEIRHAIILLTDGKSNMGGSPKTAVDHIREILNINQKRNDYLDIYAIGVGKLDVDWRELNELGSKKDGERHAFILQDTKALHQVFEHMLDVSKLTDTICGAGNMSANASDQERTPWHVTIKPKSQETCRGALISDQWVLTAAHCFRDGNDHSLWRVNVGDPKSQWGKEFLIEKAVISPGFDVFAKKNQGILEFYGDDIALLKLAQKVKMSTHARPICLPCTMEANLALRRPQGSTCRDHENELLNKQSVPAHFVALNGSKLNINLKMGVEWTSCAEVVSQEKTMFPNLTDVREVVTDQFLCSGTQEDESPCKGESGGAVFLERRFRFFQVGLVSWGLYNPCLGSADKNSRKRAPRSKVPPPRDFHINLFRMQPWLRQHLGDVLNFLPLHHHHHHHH

[2] = target: T2, human C2 E450A (human, UniProt P06681 21-752)
T2 sequence: T1 sequence with E430A, A445V

[3] = target: T3, human C2 K274A (human, UniProt P06681 21-752)
T3 sequence: T1 sequence with K254A, A445V

[4] = target: T4, human C2 N325A (human, UniProt P06681 21-752)
T4 sequence: T1 sequence with N305A, A445V

B1: RF16-242 (antibody, human IgG4 S228P, lambda, V domains shown)
VH: EVQLLQSGAEVKKPGESLKISCKGSGYSFTSYWIGWVRQMPGKGLEWMGIIYPGDSDTRYSPSFQGQVTISADKSISTAYLQWSSLKASDTAMYYCARRGHYGDYFDYWGQGTLVTVSS
VL: SYELTQPPSVSVSPGQTARITCSGDALPKKYAYWYHQKSGQAPVLVIYEDRRRPSEIPERFSGSSSGTMATLTITGAQVEDEGVYFCYSRDRAGNQRVFGGGTQLTVLG
notes: pH-dependent anti-C2 antibody from a phage display library
Kd [1]: 16.3 nM
Kd [2]: 20.3 nM
Kd [3]: 86.9 nM
Kd [4]: 39.9 nM
